Test results reported in article PMC3668531 (FEBS Open Bio, 2012).

Target: the molecule itself
Test: crystal structure; H101N crystals by vapour diffusion (7-8% PEG 20,000, 50 mM MES pH 6.3), 1 mM MnCl2 added, quick soak in 33% (w/v) L-rhamnose or D-allose; data at 100 K; four molecules (Mol-A to Mol-D) forming the tetramer

B1: mutant P. stutzeri L-RhI with a substitution of His101 with Asn (H101N) (enzyme, Pseudomonas stutzeri)
chain: MAEFRIAQDVVARENDRRASALKEDYEALGANLARRGVDIEAVTAKVEKFFVAVPSWGVGTGGTRFARFPGTGEPRGIFDKLDDCAVIQQLTRATPNVSLNIPWDKADPKELKARGDALGLGFDAMNSNTFSDAPGQAHSYKYGSLSHTDAATRAQAVEHNLECIEIGKAIGSKALTVWIGDGSNFPGQSNFTRAFERYLSAMAEIYKGLPDDWKLFSEHKMYEPAFYSTVVQDWGTNYLIAQTLGPKAQCLVDLGHHAPNTNIEMIVARLIQFGKLGGFHFNDSKYGDDDLDAGAIEPYRLFLVFNELVDAEARGVKGFHPAHMIDQSHNVTDPIESLINSANEIRRAYAQALLVDRAALSGYQEDNDALMATETLKRAYRTDVEPILAEARRRTGGAVDPVATYRASGYRARVAAERPASVAGGGGII
B1 was tested, and the “stoichiometry N” value was 4.
